From the RNAGym collection of RNA variant scans (doi:10.1093/nar/gkz1192)

B1: CPEB3 Ribozyme (parent)
chain: UAACAGGGGGCCACAGCAGAAGCGUUCACGUCGCAGCCCCUGUCAGAUUCUGGUGAAUCUGCGAAUUCUGCUGUAUAUCUC

Variants of: B1
Assay: self-cleavage, relative activity (ratio to wild type); higher = more cleavage; in vitro, sequencing
Outline: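 Relative activity compares each variant's cleaved/total read fraction with that of the unmutated ribozyme. To get these fractions, barcoded CPEB3 ribozyme libraries from rounds of error-prone PCR were transcribed with T7 RNA polymerase for 5 hours at 37°C and then given 15 min of DNase I treatment before EDTA was added. The RNAs were reverse transcribed with template switching and sequenced on Illumina, and DNA sequencing linked barcodes to variants. A minimum of 5 reads applied, and three batches were averaged.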

Variant | self-cleavage
A3C A65U | 0.95
A3C A65G | 0.92
A2U U51C | 1.07
A2U U51G | 1.17
A2U U51A | 1.17
A2G C68A | 0.11
A3G A75G | 1
A3G A75C | 1.07
A3G A75U | 1.12
A2U C50U | 0.79
A2G G46A | 0.28
A2G G46U | 0.3
A2G C38U | 0.68
A2U G33U | 0.32
A2U U78C | 0.87
A3G C29G | 0.43
A3G C29U | 0.59
A3G C29A | 0.58
A3G A18G | 0.73
A3G A18U | 0.44
A3G A18C | 0.46

Variant | self-cleavage
A2U A47G | 1.11
A3G A77U | 0.99
A3G A77C | 1.03
A3G A77G | 1.03
A3G A57U | 0.69
A3G A57C | 0.49
A3G A57G | 0.86
A2G G6A | 0.59
A2G G6U | 0.68
A3C U78C | 1.12
A2U A45U | 0.54
A2U A45G | 0.85
A3C A15U | 0.77
A3C A15G | 1.03
A2G G7U | 0.42
A2G C32A | 0.1
A2G C32U | 0.3
A3C U26C | 0.6
A3C U26A | 1.2
A2U U43A | 1.05
A2U U43C | 0.47

Variant | self-cleavage
A3G A47U | 0.48
A3G A47G | 0.92
A2G C62U | 0.32
A2G C62A | 0.15
A3C G46A | 0.25
A2G U48C | 0.28
A2G U48A | 0.09
A2U C39A | 0.42
A2U G42A | 0.43
A2U G52C | 1.04
A2G U25C | 0.49
A2G U25A | 0.36
A3C A56G | 1.12
A3C A56U | 0.65
A3G A15U | 0.78
A3G A15G | 0.84
A3G A15C | 0.95
A3C A35G | 1.21
A3C A35U | 0.81
A2G C34U | 0.29
A2G C34G | 0.1

Variant | self-cleavage
A2G U76C | 0.73
A2G U76A | 0.73
A3C A45U | 0.89
A3C A45G | 0.93
A2G U41C | 0.78
A2G U41G | 0.49
A2G U41A | 0.42
A3C A75G | 1.14
A3C A20G | 1.05
A2G U54C | 0.58
A2G U54A | 0.66
A2G U54G | 0.51
A2U G8A | 0.27
A2U G8U | 0.28
A2U C23U | 0.35
A2G G61A | 0.31
A2U U76C | 1.15
A2U U76A | 1.14
A2U A18C | 0.28
A2U A18U | 0.41
